In patent publication US20040258705A1, “Use of lectins to promote oligomerization of glycoproteins and antigenic molecules” (Antigenics Inc., priority 2003, published 2004):
Entries after “also recorded” stand apart in the source; their conditions may differ.

What was measured:
gp96 = gp96 (Mus musculus, UniProt P08113); experiment: Analytical SEC of Meth A gp96 with added Con A; format: binding, murine
Protocol: To verify gp96 was oligomerized with Con A, a common homogenate from Meth A-induced murine fibrosarcoma tissue was prepared and processed using a process that included Con A and DEAE column chromatography. The final purified gp96 preparation was divided in two. To one half of the material, exogenous con A was added to a final concentration of 50 ug/mL; buffer alone was added to the other as a control, both samples incubated at 37° C. for 2 hr and then fractionated by SEC (Superdex 200). Individual fractions were analyzed by SDS-PAGE, and by gp96- and con A-specific ELISA. Analytical data for material […] is shown in the left panel; that to which con A was added to the right. In the left panel the peak of gp96 is in fraction 5 and con A levels as detected by specific ELISA are low. In the right panel (con A added) two peaks of gp96 are evident as shown by SDS-PAGE (inset; peak fractions 3 (arrow) and 5) and gp96 ELISA (fractions 3 and 5) as well as a distinct peak of Con A centered on fraction 3.
Con A was added (50 ug/mL final) to an aliquot of this gp96 sample (conc. 500 ug/ml), the sample incubated at RT and hourly samples were taken (T=1 through T=5) and analyzed by SEC. A sample comprising con A alone was also run. […] Each sample was then re-analyzed by SEC. […]

[1] = Sigma lectin list; cited from earlier work
Meth A cells = experiment: In vivo Meth A tumor inhibition (tumor protection / rejection) assay; parameters: species or system BALB/c mice; conditions: for tumor rejection activity, Con A added in process or to final product: in process 30 and 300 μg/ml, following purification 30 μg/ml
Protocol: In vivo Meth A growth inhibition assay: BALB/c mice (n=30/group) were immunized on day 0 and day 7 with 10 or 50 μg of gp96 intradermally in the flank. On study day 14, mice were challenged with 1×10^5 Meth A cells intradermally in a total volume of 100 μl. Growing tumors were monitored during the subsequent four weeks. All animals were euthanized on study day 41 after a final tumor measurement. Data was reported as percentage of animals that are tumor-free on study day 41. Control groups included un-immunized (diluent—negative control) and immunized with irradiated Meth A cells (positive control).
In vivo Meth A growth inhibition assay: BALB/c mice (n=10/group) were immunized on day 0 and day 7 with 10 μg of gp96 intradermally in the flank. On study day 14, mice were challenged with 1×10^5 Meth A cells intradermally in a total volume of 100 gl. Growing tumors were monitored during the subsequent four weeks. All animals were euthanized on study day 41 after a final tumor measurement. Data was reported as percentage of animals that are tumor-free on study day 41. Control groups included un-immunized (diluent—negative control) and immunized with irradiated Meth A cells (positive control).
(§1) In vivo Meth A growth inhibition assay: BALB/c mice (n=10/group) were immunized on day 0 and day 7 with 10 μg of gp96 intradermally in the flank. On study day 14, mice were challenged with 1×10^5 Meth A cells intradermally in a total volume of 100 μl. Growing tumors were monitored during the subsequent four weeks. All animals were euthanized on study day 41 after a final tumor measurement. Data was reported as percentage of animals that are tumor-free on study day 41. Control groups included un-immunized (diluent—negative control) and immunized with irradiated Meth A cells (positive control).
as §1, with “with 0.3 or 3” for “with 10”, “gp96 alone or in combination with Con A” for “gp96”

In the case of `CO[C@H]1O[C@H](CO)[C@@H](O)[C@H](O)[C@@H]1O` [α-MM, Methyl α-D-Mannopyranoside, reference compound], the “effect on high molecular weight gp96-Con A complex in SEC” value (gp96; equal volume of PBS containing 10% α-MM added to 5 hr gp96 + Con A sample) is reported as “dissociated the high molecular weight complex”.

For Concanavalin A [Con A], the “Specificity Sugar” value [1] is listed as “α-man, α-glc” and the “elution position of gp96 in SEC” value (gp96; Con A 50 ug/mL added to Meth A gp96, Superdex 200 or superose 6) is listed as “mediated a shift in the elution position of the gp96 dimer peak”.

In the case of “PHA-E: Phaseolus Vulgaris lectin, Sigma product”, the “Specificity Sugar” value [1] is listed as “oligosaccharide”.

In the case of “PHA-L: Phaseolus Vulgaris lectin, Sigma product”, the “Specificity Sugar” value [1] is given as “oligosaccharide”.

B1: Pseudomonas aeruginosa (PA-I): lectin, Sigma product (protein, UniProt Q05097 2-122, looked up)
PA-I galactophilic lectin: AWKGEVLANNEAGQVTSIIYNPGDVITIVAAGWASYGPTQKWGPQGDREHPDQGLICHDAFCGALVMKIGNSGTIPVNTGLFRWVAPNNVQGAITLIYNDVPGTYGNNSGSFSVNIGKDQS
For B1, the “Specificity Sugar” value [1] is listed as “gal”.

B2: HSPPC-96 + Con A (in process): Meth A derived gp96 with Con A added during the purification process, before the DEAE column (protein, UniProt P08113 22-802, looked up)
Endoplasmin: DDEVDVDGTVEEDLGKSREGSRTDDEVVQREEEAIQLDGLNASQIRELREKSEKFAFQAEVNRMMKLIINSLYKNKEIFLRELISNASDALDKIRLISLTDENALAGNEELTVKIKCDKEKNLLHVTDTGVGMTREELVKNLGTIAKSGTSEFLNKMTEAQEDGQSTSELIGQFGVGFYSAFLVADKVIVTSKHNNDTQHIWESDSNEFSVIADPRGNTLGRGTTITLVLKEEASDYLELDTIKNLVRKYSQFINFPIYVWSSKTETVEEPLEEDEAAKEEKEESDDEAAVEEEEEEKKPKTKKVEKTVWDWELMNDIKPIWQRPSKEVEEDEYKAFYKSFSKESDDPMAYIHFTAEGEVTFKSILFVPTSAPRGLFDEYGSKKSDYIKLYVRRVFITDDFHDMMPKYLNFVKGVVDSDDLPLNVSRETLQQHKLLKVIRKKLVRKTLDMIKKIADEKYNDTFWKEFGTNIKLGVIEDHSNRTRLAKLLRFQSSHHSTDITSLDQYVERMKEKQDKIYFMAGSSRKEAESSPFVERLLKKGYEVIYLTEPVDEYCIQALPEFDGKRFQNVAKEGVKFDESEKTKESREATEKEFEPLLNWMKDKALKDKIEKAVVSQRLTESPCALVASQYGWSGNMERIMKAQAYQTGKDISTNYYASQKKTFEINPRHPLIRDMLRRIKEDEDDKTVMDLAVVLFETATLRSGYLLPDTKAYGDRIERMLRLSLNIDPEAQVEEEPEEEPEDTSEDAEDSEQDEGEEMDAGTEEEEEETEKESTEKDEL
modifications: tumor-derived; Con A added
notes: Meth A derived gp96 with Con A added during the purification process, before the DEAE column
With B2 the “tumor rejection activity, Con A added in process at graded levels” value (Meth A cells; Con A 3, 10, 30, 100, 300 ug/ml added before DEAE, 10 μg gp96, tumor-free on day 41) was “titratable increase in the tumor rejection activity” and the “tumor rejection activity, Con A added in process or to final product” value (Meth A cells; 10 μg gp96) was “increase in the tumor rejection activity; also recorded: increases the tumor rejection activity”.

B3: scFv-purified Meth A gp96 + Con A: Meth A derived gp96 from anti-gp96 scFv immunoaffinity column, Con A added (protein, UniProt P08113 22-802, looked up)
Endoplasmin: DDEVDVDGTVEEDLGKSREGSRTDDEVVQREEEAIQLDGLNASQIRELREKSEKFAFQAEVNRMMKLIINSLYKNKEIFLRELISNASDALDKIRLISLTDENALAGNEELTVKIKCDKEKNLLHVTDTGVGMTREELVKNLGTIAKSGTSEFLNKMTEAQEDGQSTSELIGQFGVGFYSAFLVADKVIVTSKHNNDTQHIWESDSNEFSVIADPRGNTLGRGTTITLVLKEEASDYLELDTIKNLVRKYSQFINFPIYVWSSKTETVEEPLEEDEAAKEEKEESDDEAAVEEEEEEKKPKTKKVEKTVWDWELMNDIKPIWQRPSKEVEEDEYKAFYKSFSKESDDPMAYIHFTAEGEVTFKSILFVPTSAPRGLFDEYGSKKSDYIKLYVRRVFITDDFHDMMPKYLNFVKGVVDSDDLPLNVSRETLQQHKLLKVIRKKLVRKTLDMIKKIADEKYNDTFWKEFGTNIKLGVIEDHSNRTRLAKLLRFQSSHHSTDITSLDQYVERMKEKQDKIYFMAGSSRKEAESSPFVERLLKKGYEVIYLTEPVDEYCIQALPEFDGKRFQNVAKEGVKFDESEKTKESREATEKEFEPLLNWMKDKALKDKIEKAVVSQRLTESPCALVASQYGWSGNMERIMKAQAYQTGKDISTNYYASQKKTFEINPRHPLIRDMLRRIKEDEDDKTVMDLAVVLFETATLRSGYLLPDTKAYGDRIERMLRLSLNIDPEAQVEEEPEEEPEDTSEDAEDSEQDEGEEMDAGTEEEEEETEKESTEKDEL
modifications: tumor-derived; Con A added
For B3, the “tumor rejection activity, immunoaffinity (scFv) purified gp96 with Con A” value (Meth A cells; 0.3 or 3 μg gp96 alone or in combination with Con A) was “increases the tumor rejection activity”.

B4: HSPPC-96 + Con A (final product): Meth A derived gp96 purified by standard procedure with Con A (30 ug/mL) added following purification (protein, UniProt P08113 22-802, looked up)
Endoplasmin: DDEVDVDGTVEEDLGKSREGSRTDDEVVQREEEAIQLDGLNASQIRELREKSEKFAFQAEVNRMMKLIINSLYKNKEIFLRELISNASDALDKIRLISLTDENALAGNEELTVKIKCDKEKNLLHVTDTGVGMTREELVKNLGTIAKSGTSEFLNKMTEAQEDGQSTSELIGQFGVGFYSAFLVADKVIVTSKHNNDTQHIWESDSNEFSVIADPRGNTLGRGTTITLVLKEEASDYLELDTIKNLVRKYSQFINFPIYVWSSKTETVEEPLEEDEAAKEEKEESDDEAAVEEEEEEKKPKTKKVEKTVWDWELMNDIKPIWQRPSKEVEEDEYKAFYKSFSKESDDPMAYIHFTAEGEVTFKSILFVPTSAPRGLFDEYGSKKSDYIKLYVRRVFITDDFHDMMPKYLNFVKGVVDSDDLPLNVSRETLQQHKLLKVIRKKLVRKTLDMIKKIADEKYNDTFWKEFGTNIKLGVIEDHSNRTRLAKLLRFQSSHHSTDITSLDQYVERMKEKQDKIYFMAGSSRKEAESSPFVERLLKKGYEVIYLTEPVDEYCIQALPEFDGKRFQNVAKEGVKFDESEKTKESREATEKEFEPLLNWMKDKALKDKIEKAVVSQRLTESPCALVASQYGWSGNMERIMKAQAYQTGKDISTNYYASQKKTFEINPRHPLIRDMLRRIKEDEDDKTVMDLAVVLFETATLRSGYLLPDTKAYGDRIERMLRLSLNIDPEAQVEEEPEEEPEDTSEDAEDSEQDEGEEMDAGTEEEEEETEKESTEKDEL
modifications: tumor-derived; Con A added
In the case of B4, the “tumor rejection activity, Con A added in process or to final product” value (Meth A cells; 10 μg gp96) is reported as “increase in the tumor rejection activity; also recorded: increases the tumor rejection activity”.
